Test results as given in patent publication US20240076343A1 (CEPHALON, published 2024).
Where a chain is given by its changes, count along the chain named. Values belong to the binder of their own block, whether it stands above or below them.

Legend:
[1] = biological target: T1, human PD-1 on Jurkat cells (Jurkat+hPD-1) (human, UniProt Q15116 21-185); assay: flow cytometry on Jurkat cells expressing hPD-1
T1 construct: extracellular domain and a portion of the transmembrane domain, stably expressed on Jurkat cells
T1 sequence (Q15116 21-185 limits assumed): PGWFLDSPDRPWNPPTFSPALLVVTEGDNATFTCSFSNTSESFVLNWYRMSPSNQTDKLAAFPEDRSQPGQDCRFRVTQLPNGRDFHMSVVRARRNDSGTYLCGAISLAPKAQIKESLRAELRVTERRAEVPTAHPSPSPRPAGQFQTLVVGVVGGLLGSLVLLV
Experimental: EC₅₀ values were calculated from the geometric mean fluorescent intensity (gMFI) across the titrated concentrations using GraphPad Prism 7 software.

[2] = biological target: human PD-1 on Jurkat Effector cells of the PD-1/PD-L1 blockade bioassay (Promega, Cat #J1255) (human, UniProt Q15116 25-288); assay: cell-based or functional assay
Sequence of human PD-1 on Jurkat Effector cells of the PD-1/PD-L1 blockade bioassay (Promega, Cat #J1255) (Q15116 25-288): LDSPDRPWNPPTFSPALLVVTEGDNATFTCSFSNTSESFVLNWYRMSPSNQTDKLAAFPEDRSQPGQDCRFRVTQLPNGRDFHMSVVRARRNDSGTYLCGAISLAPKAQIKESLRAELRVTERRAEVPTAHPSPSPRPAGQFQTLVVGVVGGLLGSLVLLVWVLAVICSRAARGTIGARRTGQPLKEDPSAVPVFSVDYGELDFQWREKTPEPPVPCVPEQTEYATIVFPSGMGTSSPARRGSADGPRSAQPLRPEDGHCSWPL

[3] = biological target: T2, native human PD-1 on PMA/ionomycin-activated primary human T cells (human, UniProt Q15116 25-288); assay: flow cytometry, activated human CD3+CD4+ T cells
T2 construct: whole, on cells; also called native hPD-1
T2 sequence (Q15116 25-288): as above
Experimental: (§1) The binding of anti-hPD-1 antibodies and anti-hPD-1-attenuated hIL-2 fusion proteins on activated primary T cells expressing hPD-1 was examined by flow cytometry. […] Cells were then stained with 1:20 dilution of Allophycocyanin-conjugated anti-human IgG Fc to detect bound antibody. To delineate immune subsets, a cocktail of surface markers included anti-human CD3, anti-CD4, and anti-CD8 antibodies was used. […] Cells were analyzed on the BD Fortessa (BD Biosciences), FlowJo software version 10 was used to gate on T cell subsets then calculate gMFI of the allophycocyanin signal. EC₅₀ values were calculated from the gMFI across the titrated concentrations using GraphPad Prism 7 software. To test the binding of anti-hPD-1-hIL-2 fusion proteins, cryopreserved CD3+ T cells were activated with PMA/ionomycin and flow cytometry binding was performed identically as described above.

[4] = biological target: T3, human PD-1 (amino acids 1-185) on transfected Jurkat cells (human, UniProt Q15116 21-185); assay: flow cytometry on Jurkat cells expressing hPD-1; cells pre-incubated with 10 µM anti-hPD-1 #2-mIgG2b-N297A
T3 construct: also called hPD-1; Jurkat+hPD-1 cell line
T3 sequence (Q15116 21-185 limits assumed): as the sequence (Q15116 21-185 limits assumed) above
Experimental: (§2) Briefly, Jurkat cells stably expressing hPD-1 (as described in Protocol A above) were washed and re-suspended in FACS buffer containing 1:50 dilution of human FcR Blocking reagent. Cells were incubated at 4° C. for 10 minutes and washed. […] Cells were washed and incubated with test antibodies or antibody-attenuated hIL-2 fusion proteins serially diluted six-fold for an 8-point curve in 100 μL volume for one hour at 4° C. To detect bound test anti-hPD-1 antibodies or anti-hPD-1-attenuated hIL-2 fusion proteins, cells were washed again and incubated with 1:40 dilution of Allophycocyanin-conjugated anti-human IgG Fc monoclonal antibody for 45 minutes on ice. Cells were washed and re-suspended in FACS buffer containing 1:1000 dilution of Sytox Green (Thermo Fisher). […] Flow cytometry was carried out on the BD Canto II, BD Celesta, or BD Fortessa (BD Biosciences) flow cytometers and gMFI was calculated using FlowJo software version 10. EC₅₀ values were calculated from the gMFI of the Allophycocyanin signal across the titrated concentrations using GraphPad Prism 7 software.

[5] = biological target: T3, human PD-1 (amino acids 1-185) on …; assay: flow cytometry on Jurkat cells expressing hPD-1; no competitor
Experimental: as §2

[6] = biological target: T3, human PD-1 (amino acids 1-185) on …; assay: flow cytometry, Jurkat+hPD-1 cells
[7] = biological target: T3, human PD-1 (amino acids 1-185) on …; assay: flow cytometry on Jurkat cells expressing hPD-1; cells pre-incubated with 10 µM anti-hPD-1 #1-mIgG2b-N297A
Experimental: as §2

[8] = biological target: T3, human PD-1 (amino acids 1-185) on …; assay: flow cytometry, Jurkat+hPD-1 cells; competitor 10 µM anti-hPD-1 #1-mIgG2b-N297A
Experimental: as §2

[9] = biological target: T2, native human PD-1 on …; assay: flow cytometry, activated human CD3+CD8+ T cells
Experimental: as §1

[10] = biological target: T3, human PD-1 (amino acids 1-185) on …; assay: flow cytometry on Jurkat cells expressing hPD-1; cells pre-incubated with 10 µM anti-hPD-1 #1-mIgG2b-N297A; remark: listed apart in the source
Experimental: as §2

[11] = biological target: T3, human PD-1 (amino acids 1-185) on …; assay: flow cytometry on Jurkat cells expressing hPD-1; cells pre-incubated with 10 µM anti-hPD-1 #2-mIgG2b-N297A; remark: listed apart in the source
Experimental: as §2

[12] = biological target: T3, human PD-1 (amino acids 1-185) on …; assay: flow cytometry on Jurkat cells expressing hPD-1; no competitor; remark: listed apart in the source
Experimental: as §2

EC50 [1]: 0.277 nM
B1: 2H7-hIgG4 (antibody)
heavy: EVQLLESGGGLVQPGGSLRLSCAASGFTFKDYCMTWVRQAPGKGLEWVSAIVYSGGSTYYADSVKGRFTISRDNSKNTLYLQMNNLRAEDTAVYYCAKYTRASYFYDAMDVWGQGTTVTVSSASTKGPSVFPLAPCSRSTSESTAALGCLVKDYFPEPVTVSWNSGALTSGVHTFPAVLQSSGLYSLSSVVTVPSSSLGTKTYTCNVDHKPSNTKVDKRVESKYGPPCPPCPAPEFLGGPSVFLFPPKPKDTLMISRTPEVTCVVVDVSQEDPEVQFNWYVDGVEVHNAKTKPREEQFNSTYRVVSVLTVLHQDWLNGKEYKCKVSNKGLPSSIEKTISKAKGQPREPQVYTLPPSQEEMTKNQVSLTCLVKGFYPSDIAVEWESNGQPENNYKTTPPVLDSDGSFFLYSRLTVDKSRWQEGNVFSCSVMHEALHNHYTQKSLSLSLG
light: EIVLTQSPGTLSLSPGERATLSCRASQSIGKSFLAWYQQKPGQAPRLLIYDASTRAADIPARFSGSGSGTDFTLTISSLEPEDFAVYYCQQYYDWPPLSFGGGTKVEIKRTVAAPSVFIFPPSDEQLKSGTASVVCLLNNFYPREAKVQWKVDNALQSGNSQESVTEQDSKDSTYSLSSTLTLSKADYEKHKVYACEVTHQGLSSPVTKSFNRGEC

luminescence (RLU), PD-1/PD-L1 blockade bioassay [2]: ~3000 RLU
B2: OMC.2.C6-hIgG4 (antibody, V domains shown)
VH: EVQLLESGGGLVQPGGSLRLSCTASGFTFSSYEMQWVRQAPGKGLEWVLGITSSSSHIFYADSVKGRFTVSRDNSKNTLYLQMNSLRAEDTAVYYCTKDLNSYYGLDVWGQGTTVTVSS
VL: QSVMTQPPSASGTPGQRVTISCSGSTSNLGNNYVSWYQHLPGTAPKLLIYGNDQRPSGVPDRFSGSKSGTSASLAISGLQSDDEADYYCSSWDASLNVWVFGGGTKLTVLG

EC50 [1]: 11.5 nM
B3: OMC.2.C6-hIgG4 (antibody, V domains shown)
VH: B2 VH
VL: B2 VL

luminescence (RLU), PD-1/PD-L1 blockade bioassay [2]: ~3000 RLU
B4: OMC.1.B6-hIgG4 (antibody, V domains shown)
VH: EVQLLESGGGLVQPGGSLRLSCAASGFTFSSNYMSWVRQAPGKGLEWVSAISSSGGTIFYADSVKGRFTISRDNSKNTLYLQMNSLRAEDTAVYYCAKHKWNAVYYDGMDVWGQGTTVTVSS
VL: QSVLTQPPSASGTPGQRVTISCSGSNSNIGRNLVNWYQQLPGTAPKLLIYTIDQRPSGVPDRFSGSKSGTSASLVISGLQSEDEADYYCAAWDGSLNAWVFGGGTKLTVLG

EC50 [1]: 7.42 nM
B5: OMC.1.B6-hIgG4 (antibody, V domains shown)
VH: B4 VH
VL: B4 VL

luminescence (RLU), PD-1/PD-L1 blockade bioassay [2]: ~3000 RLU
B6: OMC.1.D6-hIgG4 (antibody, V domains shown)
VH: B4 VH with S31D, N32Y, T69I, A103D, G108A
VL: B4 VL with I52V, V75A, Q80A, G94S, A98S

EC50 [1]: 16 nM
B7: OMC.1.D6-hIgG4 (antibody, V domains shown)
VH: B4 VH with S31D, N32Y, T69I, A103D, G108A
VL: B4 VL with I52V, V75A, Q80A, G94S, A98S

EC50 [3]: 12 nM
EC50 (read off the curve) [4]: ~8 nM
EC50 (read off the curve) [5]: ~2 nM
EC50 [6]: 2 to 4 nM
luminescence (RLU), PD-1/PD-L1 blockade bioassay [2]: ~3000 RLU
EC50 (read off the curve) [7]: ~9 nM
fold shift of the dose-titration curve [8]: < 10 fold
EC50 [9]: 16 nM
B8: C51E6-5-hIgG4 (antibody, V domains shown)
VH: QVQLVQSGSELKKPGASVKVSCKASGYSLYGTSMHWVRQAPGQGLEWMGYISPFTGRATYAQGFTGRFVFSLDTSVSTAYLQISSLKAEDTAVYYCARDYDYRYYYAMDYWGQGTTVTVSS
VL: EIVLTQSPDFQSVTPKEKVTITCTASESVPPQFLHWYQQKPDQSPKLLIYASRERASGVPSRFSGSGSGTDFTLTINSLEAEDAATYYCHQFHRSPLTFGGGTKLEIKR

EC50 [1]: 2.05 nM
B9: C51E6-5-hIgG4 (antibody, V domains shown)
VH: B8 VH
VL: B8 VL

EC50 [3]: 30 nM
EC50 (read off the curve) [10]: ~10 nM
EC50 (read off the curve) [11]: ~20 nM
luminescence (RLU), PD-1/PD-L1 blockade bioassay [2]: ~3000 RLU
EC50 (read off the curve) [12]: ~6 nM
fold shift of the dose-titration curve [8]: < 10 fold
EC50 [9]: 22 nM
B10: A2-hIgG4 (antibody, V domains shown)
VH: DVQLVESGGGLVQPGGSLRLSCAASGFTFDISAMSWVRQAPGKGLEWVSTISGSAYSTYYADSVKGRFTISRDNSKSTLYLQMNSLRAEDTAVYYCAREIFSDYWGLGTLVTVSS
VL: QSVLTQPPSASGTPGQRVTISCSGSTSNIGRESVYWYQQLPGTAPKLLIYSNVQRPSGAPNRFSGSKSGTSASLAISGLQSEDEADYYCGTWDDSLNGWVFGGGTKLTVLG

EC50 [1]: 5.36 nM
B11: G12-hIgG4 (antibody, V domains shown)
VH: DSLVESGGGLVQPGGSLRLSCAASGFTFDISAMSWVRQAPGKGLEWVSTISGSAYSTYYADSVKGRFTISRDNSKSTLYLQMNSLRAEDTAVYYCAREIFSDYWGLGTLVTVSS
VL: B10 VL with S51L, V53S, A59V, N61D, E84V

EC50 [1]: 5.97 nM
B12: A2-hIgG4 (antibody, V domains shown)
VH: B10 VH
VL: B10 VL

EC50 [1]: 9.67 nM
B13: D12-hIgG4 (antibody, V domains shown)
VH: B10 VH
VL: B10 VL with S25N, A59V, N61D

EC50 [1]: 0.115 nM
B14: H7-632-hIgG1-LAGA (antibody, V domains shown)
VH: EVQLLESGGGLVQPGGSLRLSCAASGFTFKSYAMHWVRQAPGKGLEWVSAIVYSGGSTYYADSVKGRFTISRDNSKNTLYLQMNSLRAEDTAVYYCAKYDRASYFYDAMDVWGQGTTVTVSS
VL: EIVLTQSPGTLSLSPGERATLSCRASQSISSSFLAWYQQKPGQAPRLLIYDASDRATGIPDRFSGSGSGTDFTLTISRLEPEDFAVYYCQQYYDWPPLSFGGGTKVEIKR
